From the supplement of paper PMC10724198
± gives the standard deviation of the averaged measurements.

Test system: Saccharomyces cerevisiae
Assay: protein stability index of tFT-peptide fusion (C-terminal peptide) (PSI (0-1 scale)); higher = more stable (slower turnover)
Conditions: genetic background: wild type; temperature: 30 C
Method: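 Multiplexed protein stability (MPS) profiling in S. cerevisiae. Random 12-aa peptides (tFT-X12 library) are fused to the C-terminus of a sfGFP-mCherry tandem fluorescent timer, after mCherry and a GGGS linker. Cells are FACS-sorted into 8 mCherry/sfGFP bins and deep-sequenced. The protein stability index (PSI) is the read-weighted bin average, scaled from 0 (unstable) to 1 (stable). Only peptides with >10 reads are reported; cells were grown at 30 °C in SC-His with glucose.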
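Further: PSI is a weighted mean of sequencing reads over stability bins, variants kept only with over 10 reads, mCherry proximal and sfGFP distal, peptide attached via GGGS linker.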

Row | Sequence | protein stability index
1 | GGVGRGGIRVMG | 0.629 ± 0.062
2 | GGVGRSWQEVGG | 0.72 ± 0.025
3 | GGVGVYSVMVGG | 0.575 ± 0.015
4 | GGVLERARRRGG | 0.708 ± 0.2
5 | GGVLERSRRRGG | 0.741 ± 0.17
6 | GGVLSAGSWSGG | 0.665 ± 0.019
7 | GGVNRPRKSTAT | 0.6977 ± 0.0063
8 | GGVSRRVNGREA | 0.708 ± 0.008
9 | GGWGCWQAGGLT | 0.7444 ± 0.0016
10 | GGWGGGGLGGAF | 0.741 ± 0.037
11 | GGWPREVVGRGG | 0.671 ± 0.09
12 | GGWSGRFVTVGR | 0.713 ± 0.066
13 | GGWWGRAGENTR | 0.729 ± 0.075
14 | GGWWGWAGENTR | 0.7 ± 0.048
15 | GGYATYWVGVRL | 0.697 ± 0.036
16 | GHGGSKIYCLVD | 0.637 ± 0.062
17 | GHLRPFPPPLLP | 0.748 ± 0.089
18 | GIFRTRGFPPVG | 0.694 ± 0.088
19 | GIGLSVGDVLGC | 0.73 ± 0.037
20 | GIIDGGTISRNK | 0.692 ± 0.013
21 | GIISLTPRGCTR | 0.92 ± 0.11
22 | GINEGRAISDDW | 0.725 ± 0.021
23 | GIPEFGYLYLVT | 0.613 ± 0.017
24 | GIPYGWLLCFPR | 0.813 ± 0.021
25 | GIRAEPSGGQAE | 0.692 ± 0.057

Row | Sequence | protein stability index
26 | GISASYTASSSG | 0.642 ± 0.067
27 | GISPFYTALSGF | 0.754 ± 0.03
28 | GIVFRGVVTWLL | 0.6 ± 0.0085
29 | GIVRGFGGGGEE | 0.662 ± 0.026
30 | GKAGGNREGTGT | 0.689 ± 0.048
31 | GKCTGSAEMRPQ | 0.627 ± 0.079
32 | GKGEERGVATRT | 0.657 ± 0.0076
33 | GKIEVNTRIPGG | 0.646 ± 0.078
34 | GKNKKSKTLIKQ | 0.669 ± 0.029
35 | GKRAKKKNTKRY | 0.662 ± 0.14
36 | GKRHICFNHSGE | 0.6966 ± 0.0045
37 | GKRKKERGGGER | 0.711 ± 0.093
38 | GKRRCRREVERK | 0.695 ± 0.018
39 | GKRTGRKKRRKR | 0.638 ± 0.095
40 | GKRWPSINKGPV | 0.6851 ± 0.0051
41 | GKVGGQGGKGVV | 0.765 ± 0.13
42 | GLACWALLTCNR | 0.726 ± 0.015
43 | GLCPALQFPLHE | 0.68 ± 0.024
44 | GLCRRLDRQLAN | 0.6787 ± 0.0026
45 | GLFAPVGLGFGL | 0.724 ± 0.012
46 | GLGACMVNELLG | 0.648 ± 0.018
47 | GLGGGVGGWLVV | 0.705 ± 0.041
48 | GLGGRFSWVDGV | 0.756 ± 0.012
49 | GLGGRVWSDMGG | 0.745 ± 0.11
50 | GLGTIYGGEWWW | 0.759 ± 0.085

Row | Sequence | protein stability index
51 | GLGWGGVGVAGV | 0.705 ± 0.076
52 | GLKVVENWIECA | 0.555 ± 0.044
53 | GLNPPDPYPVSF | 0.754 ± 0.11
54 | GLPLPPPHPFSL | 0.7793 ± 0.0021
55 | GLPPPAPRRPDL | 0.664 ± 0.0077
56 | GLPSSYLSALFR | 0.708 ± 0.029
57 | GLQFRPFCVLEL | 0.634 ± 0.013
58 | GLSPPLCSTPSR | 0.736 ± 0.0092
59 | GLSWTVDDGHGG | 0.683 ± 0.039
60 | GLVGGLCIGRLV | 0.672 ± 0.024
61 | GLVVCDGGGVGC | 0.684 ± 0.14
62 | GLWIRAEISLVS | 0.575 ± 0.016
63 | GLYCDDSYPRPH | 0.666 ± 0.1
64 | GMCWTEGNTAVL | 0.697 ± 0.06
65 | GMDGRGGGGSVV | 0.723 ± 0.039
66 | GMLSIHWNIGGT | 0.725 ± 0.014
67 | GMRGGGGWCRGW | 0.671 ± 0.043
68 | GMRILRLIHVIP | 0.571 ± 0.031
69 | GMSRLFTYRAAS | 0.72 ± 0.0091
70 | GMTYWFCSFPFF | 0.686 ± 0.04
71 | GMVTCTSPRCHK | 0.694 ± 0.016
72 | GNFDRVSMTKFR | 0.73 ± 0.035
73 | GNSGAFTPSTQW | 0.687 ± 0.055
74 | GPAPAPPALSSC | 0.745 ± 0.0089
75 | GPCFPRRSAPSD | 0.67 ± 0.046

Row | Sequence | protein stability index
76 | GPCSSMFGLRYT | 0.672 ± 0.033
77 | GPDSSYLITPRR | 0.755 ± 0.065
78 | GPEAVARIFDDE | 0.708 ± 0.0095
79 | GPFHILSSATRP | 0.705 ± 0.054
80 | GPGGVGVTSGGK | 0.679 ± 0.062
81 | GPGSCPVRLCGF | 0.661 ± 0.0074
82 | GPGVFGGFRTEK | 0.648 ± 0.056
83 | GPLVGGDGRWVG | 0.706 ± 0.011
84 | GPPPAWALCYPL | 0.601 ± 0.023
85 | GPPPLRLWPLPV | 0.618 ± 0.079
86 | GPPPPLFAPWPF | 0.656 ± 0.027
87 | GPPRDLARKAGL | 0.708 ± 0.065
88 | GPRGGRLSWAPG | 0.62172 ± 0.00044
89 | GPRVLCNCHLRD | 0.688 ± 0.0083
90 | GPSATPPGPGLR | 0.792 ± 0.052
91 | GPSVWRPSESLV | 0.748 ± 0.03
92 | GPTPPRSPPAVS | 0.646 ± 0.055
93 | GPTPSVKGDRDT | 0.632 ± 0.044
94 | GPVAYSMDILVE | 0.66 ± 0.058
95 | GPVHVRGVGFGF | 0.73 ± 0.02
96 | GPVRIDSPFKSA | 0.733 ± 0.017
97 | GPVVAGRLWLWV | 0.641 ± 0.046
98 | GQCHYSSFPVRQ | 0.732 ± 0.011
